The source of these data is publication PMC1361355.

One assay addresses ephrinB2 (Homo sapiens) (UniProt P52799). The following applies: cited from earlier work.
In assay [1] the target is human ephrinB2 stably expressed on CHO-pgsA745 cells (CHO-B2) (human) (UniProt P52799). Nature of the assay: flow cytometry on cells.

Sequence of EphB4 (P54760 16-539): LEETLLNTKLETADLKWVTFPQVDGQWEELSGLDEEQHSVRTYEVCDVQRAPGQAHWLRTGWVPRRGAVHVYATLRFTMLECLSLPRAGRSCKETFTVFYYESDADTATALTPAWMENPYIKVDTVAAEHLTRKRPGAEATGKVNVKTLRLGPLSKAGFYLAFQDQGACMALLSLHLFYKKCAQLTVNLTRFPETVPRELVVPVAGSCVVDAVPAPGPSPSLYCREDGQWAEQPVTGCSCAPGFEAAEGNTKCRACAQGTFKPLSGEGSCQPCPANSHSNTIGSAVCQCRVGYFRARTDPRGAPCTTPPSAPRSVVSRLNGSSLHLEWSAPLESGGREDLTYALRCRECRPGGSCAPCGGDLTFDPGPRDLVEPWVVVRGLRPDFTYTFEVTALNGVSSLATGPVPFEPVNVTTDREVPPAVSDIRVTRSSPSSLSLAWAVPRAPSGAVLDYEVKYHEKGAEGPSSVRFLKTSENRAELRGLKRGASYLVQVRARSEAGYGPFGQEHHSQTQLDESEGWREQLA
Sequence of ephrinB2 (Homo sapiens) (P52799 28-229): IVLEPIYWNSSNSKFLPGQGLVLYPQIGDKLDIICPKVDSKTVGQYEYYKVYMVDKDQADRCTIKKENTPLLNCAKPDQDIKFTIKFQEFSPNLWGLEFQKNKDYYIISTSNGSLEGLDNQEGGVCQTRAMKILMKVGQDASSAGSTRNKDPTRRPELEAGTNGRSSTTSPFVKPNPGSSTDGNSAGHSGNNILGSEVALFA

A word on the Kd: it is the concentration at which binding is half-saturated. As for EphB4 (from UniProt P54760), the Kd with ephrinB2 (Homo sapiens) is 0.5 nM. “NiV-G-Fc, a fusion construct between the ectodomain of NiV-G and the Fc region of human IgG1 (from UniProt Q9IH62 71-602) (Fc fusion)” displayed a Kd in assay [1] of 0.06 nM.
